How the values were obtained:
[1] = molecular target: T1, human IL1RAP on cells (KU812, LAMA-84, HEK-Blue IL-33/IL-1β cells) (human, UniProt Q9NPH3 21-570); test: cell-based or functional assay
T1 sequence (looked up): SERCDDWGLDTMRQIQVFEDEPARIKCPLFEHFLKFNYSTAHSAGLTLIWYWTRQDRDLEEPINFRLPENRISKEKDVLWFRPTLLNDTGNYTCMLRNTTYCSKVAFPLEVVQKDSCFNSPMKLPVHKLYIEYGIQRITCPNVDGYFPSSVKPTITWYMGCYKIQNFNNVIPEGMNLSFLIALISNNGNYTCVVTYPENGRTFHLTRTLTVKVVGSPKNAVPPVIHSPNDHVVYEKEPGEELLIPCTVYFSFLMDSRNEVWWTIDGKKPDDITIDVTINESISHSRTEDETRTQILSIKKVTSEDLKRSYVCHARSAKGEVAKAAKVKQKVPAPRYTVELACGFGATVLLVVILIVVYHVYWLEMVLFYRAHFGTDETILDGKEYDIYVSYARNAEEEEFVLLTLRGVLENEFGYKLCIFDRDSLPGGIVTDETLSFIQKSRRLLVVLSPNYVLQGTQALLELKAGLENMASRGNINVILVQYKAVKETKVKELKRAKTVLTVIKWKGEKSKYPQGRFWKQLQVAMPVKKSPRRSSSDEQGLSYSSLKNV

[2] = molecular target: T2, IL1RAP protein (analyte of the Biacore study, Example A(i)) (human, UniProt Q9NPH3 21-367, limits assumed); test: SPR, BIAcore T200, antibody captured by anti-mouse IgG, analyte 100 nM, 25 C
T2 construct: also called the analyte; human IL1RAP
T2 sequence (looked up): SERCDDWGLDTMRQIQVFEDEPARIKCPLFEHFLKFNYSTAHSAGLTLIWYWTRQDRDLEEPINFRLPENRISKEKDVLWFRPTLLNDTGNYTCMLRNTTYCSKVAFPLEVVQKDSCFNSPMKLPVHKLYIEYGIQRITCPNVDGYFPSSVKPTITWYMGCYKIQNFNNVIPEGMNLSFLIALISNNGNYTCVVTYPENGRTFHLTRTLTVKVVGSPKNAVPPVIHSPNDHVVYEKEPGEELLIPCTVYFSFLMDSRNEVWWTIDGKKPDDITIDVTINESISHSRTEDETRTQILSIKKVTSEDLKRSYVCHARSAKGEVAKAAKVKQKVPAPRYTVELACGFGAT
Method: Goat anti-mouse IgG was immobilized on a CM5 chip according to the technical manual of capture kit and standard operation principle of BIAcore T200 (Biacore Life Sciences, GE Healthcare Europe GmbH, Uppsala, Sweden).
The capture molecule surface was regenerated after each binding cycle using the manufacturer's recommended conditions.
After five cycles of start-up, each antibody (100 nM) was injected at a flow rate of 30 μl/min, for 120 s, at the start of the cycle; then the analyte (100 nM) was injected at a flow rate of 30 μl/min, for 120 s, followed by monitoring the dissociation phase for 300 s.

[3] = molecular target: T1, human IL1RAP on cells (KU812, LAMA-84, …); test: cell-based or functional assay; remark: listed apart in the source

EC50, murine IL-1 alpha-stimulated HEK-Blue IL-33/IL-1β cells [1] [nM]	EC50, murine IL-1 beta-stimulated HEK-Blue IL-33/IL-1β cells [1] [nM]	EC50, murine IL-33-stimulated HEK-Blue IL-33/IL-1β cells [1] [nM]	IC50, murine IL-1 alpha-stimulated HEK-Blue IL-33/IL-1β cells [1] [nM]	IC50, murine IL-1 beta-stimulated HEK-Blue IL-33/IL-1β cells [1] [nM]	IC50, murine IL-33-stimulated HEK-Blue IL-33/IL-1β cells [1] [nM]	Kd [2] [nM]	koff [2] [s⁻¹]	kon [2] [M⁻¹ s⁻¹]	EC50, human IL-1α-stimulated HEK-Blue IL-33/IL-1β cells [3] [nM]	EC50, human IL-1β-stimulated HEK-Blue IL-33/IL-1β cells [3] [nM]	EC50, human IL-33-stimulated HEK-Blue IL-33/IL-1β cells [3] [nM]	IC50, human IL-1α-stimulated HEK-Blue IL-33/IL-1β cells [3] [nM]	IC50, human IL-1β-stimulated HEK-Blue IL-33/IL-1β cells [3] [nM]	IC50, human IL-33-stimulated HEK-Blue IL-33/IL-1β cells [3] [nM]	Binder
84.2	> 100	> 100	81.7	50	> 100	1.43	0.000335	234000	–	–	–	–	–	–	CAN01 (antibody, V domains shown, Murine-derived monoclonal anti-IL1RAP antibody; also called CAN01-AF488 (AlexaFluor488-labelled form)) VH: QVQLQQSGTELMKPGASVKISCKATGYTVSSYWIDWVKQTPGHGLEWIGEILPGSAINNYNEKFKGKATFTADTSSNTAYMQLSSLTSEDSAVYYCASGDYFDSTFVYYWGQGTTLTVSS VL: DVLMTQTPLSLPVSLGDQASISCRSSQSIVHSNGNTYLEWYLQKPGQSPKLLIYKVSNRFSGVPDRFSGSGSGTDFTLKISRVEAEDLGVYYCFQGSHVPRTFGGGTKLEIKR
2.9	1.56	4.01	5	1.59	4.12	0.321	7.25e-05	226000	37.6	10.5	30.5	37.3	10.1	30.4	CAN03 (antibody, V domains shown, Murine-derived monoclonal anti-IL1RAP antibody; also called CAN03-AF488 (AlexaFluor488-labelled form)) VH: DVKLVESGGGLVKPGGSLKLSCAASGFTFSIYTMSWVRQTPEKRLEWVATISIGGSYINYPDSVKGRFTISRDNAKNTLYLQMSSLKSEDTAIYYCSREVDGSYAMDYWGQGTSVTVSS VL: DILLTQSPAILSVSPGERVSFSCRASQSIGTSIHWYQRRTNGSPRLLIKSASESISGIPSRFSGSGSGTDFTLSINSVESEDIADYYCQQSNSWPTTFGAGTKLELKR
